{
  "source": "patent US20210032299A1",
  "binders": {"B1": {"name": "Example 100 (peptide)", "peptide": "Y[Aib]EGTFISDYSI[αMeL]LDKIHQ[Aib]EFVE[4Pal]K([AEEA-AEEA-γGlu-C20 diacid])LEGGPSSGAPPPS-NH2", "modifications": "N-terminus assumed", "SMILES": "CC[C@H](C)[C@H](NC(=O)[C@H](CCCCN)NC(=O)[C@H](CC(=O)O)NC(=O)[C@H](CC(C)C)NC(=O)[C@](C)(CC(C)C)NC(=O)[C@@H](NC(=O)[C@H](CO)NC(=O)[C@H](Cc1ccc(O)cc1)NC(=O)[C@H](CC(=O)O)NC(=O)[C@H](CO)NC(=O)[C@@H](NC(=O)[C@H](Cc1ccccc1)NC(=O)[C@@H](NC(=O)CNC(=O)[C@H](CCC(=O)O)NC(=O)C(C)(C)NC(=O)[C@@H](N)Cc1ccc(O)cc1)[C@@H](C)O)[C@@H](C)CC)[C@@H](C)CC)C(=O)N[C@@H](Cc1c[nH]cn1)C(=O)N[C@@H](CCC(N)=O)C(=O)NC(C)(C)C(=O)N[C@@H](CCC(=O)O)C(=O)N[C@@H](Cc1ccccc1)C(=O)N[C@H](C(=O)N[C@@H](CCC(=O)O)C(=O)N[C@@H](Cc1ccncc1)C(=O)N[C@@H](CCCCNC(=O)COCCOCCNC(=O)COCCOCCNC(=O)CC[C@H](NC(=O)CCCCCCCCCCCCCCCCCCC(=O)O)C(=O)O)C(=O)N[C@@H](CC(C)C)C(=O)N[C@@H](CCC(=O)O)C(=O)NCC(=O)NCC(=O)N1CCC[C@H]1C(=O)N[C@@H](CO)C(=O)N[C@@H](CO)C(=O)NCC(=O)N[C@@H](C)C(=O)N1CCC[C@H]1C(=O)N1CCC[C@H]1C(=O)N1CCC[C@H]1C(=O)N[C@@H](CO)C(N)=O)C(C)C"}, "B2": {"name": "Example 99 (peptide)", "peptide": "Y[Aib]EGT[αMePhe(2-F)]ISDYSIALDKIHQ[Aib]DFVEYK([AEEA-AEEA-γGlu-C20 diacid])LEGGPSSGAPPPS-NH2", "modifications": "N-terminus assumed", "SMILES": "CC[C@H](C)[C@H](NC(=O)[C@H](CO)NC(=O)[C@H](Cc1ccc(O)cc1)NC(=O)[C@H](CC(=O)O)NC(=O)[C@H](CO)NC(=O)[C@@H](NC(=O)[C@](C)(Cc1ccccc1F)NC(=O)[C@@H](NC(=O)CNC(=O)[C@H](CCC(=O)O)NC(=O)C(C)(C)NC(=O)[C@@H](N)Cc1ccc(O)cc1)[C@@H](C)O)[C@@H](C)CC)C(=O)N[C@@H](C)C(=O)N[C@@H](CC(C)C)C(=O)N[C@@H](CC(=O)O)C(=O)N[C@@H](CCCCN)C(=O)N[C@H](C(=O)N[C@@H](Cc1c[nH]cn1)C(=O)N[C@@H](CCC(N)=O)C(=O)NC(C)(C)C(=O)N[C@@H](CC(=O)O)C(=O)N[C@@H](Cc1ccccc1)C(=O)N[C@H](C(=O)N[C@@H](CCC(=O)O)C(=O)N[C@@H](Cc1ccc(O)cc1)C(=O)N[C@@H](CCCCNC(=O)COCCOCCNC(=O)COCCOCCNC(=O)CC[C@H](NC(=O)CCCCCCCCCCCCCCCCCCC(=O)O)C(=O)O)C(=O)N[C@@H](CC(C)C)C(=O)N[C@@H](CCC(=O)O)C(=O)NCC(=O)NCC(=O)N1CCC[C@H]1C(=O)N[C@@H](CO)C(=O)N[C@@H](CO)C(=O)NCC(=O)N[C@@H](C)C(=O)N1CCC[C@H]1C(=O)N1CCC[C@H]1C(=O)N1CCC[C@H]1C(=O)N[C@@H](CO)C(N)=O)C(C)C)[C@@H](C)CC"}, "B3": {"name": "Example 112 (peptide)", "peptide": "Y[Aib]EGT[αMePhe(2-F)]ISDYSIALDKIHQ[Aib]DFVE[4Pal]K([AEEA-AEEA-γGlu-C20 diacid])LEGGPSSGAPPPS-NH2", "modifications": "N-terminus assumed", "SMILES": "CC[C@H](C)[C@H](NC(=O)[C@H](CO)NC(=O)[C@H](Cc1ccc(O)cc1)NC(=O)[C@H](CC(=O)O)NC(=O)[C@H](CO)NC(=O)[C@@H](NC(=O)[C@](C)(Cc1ccccc1F)NC(=O)[C@@H](NC(=O)CNC(=O)[C@H](CCC(=O)O)NC(=O)C(C)(C)NC(=O)[C@@H](N)Cc1ccc(O)cc1)[C@@H](C)O)[C@@H](C)CC)C(=O)N[C@@H](C)C(=O)N[C@@H](CC(C)C)C(=O)N[C@@H](CC(=O)O)C(=O)N[C@@H](CCCCN)C(=O)N[C@H](C(=O)N[C@@H](Cc1c[nH]cn1)C(=O)N[C@@H](CCC(N)=O)C(=O)NC(C)(C)C(=O)N[C@@H](CC(=O)O)C(=O)N[C@@H](Cc1ccccc1)C(=O)N[C@H](C(=O)N[C@@H](CCC(=O)O)C(=O)N[C@@H](Cc1ccncc1)C(=O)N[C@@H](CCCCNC(=O)COCCOCCNC(=O)COCCOCCNC(=O)CC[C@H](NC(=O)CCCCCCCCCCCCCCCCCCC(=O)O)C(=O)O)C(=O)N[C@@H](CC(C)C)C(=O)N[C@@H](CCC(=O)O)C(=O)NCC(=O)NCC(=O)N1CCC[C@H]1C(=O)N[C@@H](CO)C(=O)N[C@@H](CO)C(=O)NCC(=O)N[C@@H](C)C(=O)N1CCC[C@H]1C(=O)N1CCC[C@H]1C(=O)N1CCC[C@H]1C(=O)N[C@@H](CO)C(N)=O)C(C)C)[C@@H](C)CC"}, "B4": {"name": "Example 113 (peptide)", "peptide": "Y[Aib]EGT[αMePhe(2-F)]ISDYSIALDKIHQ[Aib]DFVE[4Pal]K([AEEA-AEEA-γGlu-C20 diacid])LEAGPSSGAPPPS-NH2", "modifications": "N-terminus assumed", "SMILES": "CC[C@H](C)[C@H](NC(=O)[C@H](CO)NC(=O)[C@H](Cc1ccc(O)cc1)NC(=O)[C@H](CC(=O)O)NC(=O)[C@H](CO)NC(=O)[C@@H](NC(=O)[C@](C)(Cc1ccccc1F)NC(=O)[C@@H](NC(=O)CNC(=O)[C@H](CCC(=O)O)NC(=O)C(C)(C)NC(=O)[C@@H](N)Cc1ccc(O)cc1)[C@@H](C)O)[C@@H](C)CC)C(=O)N[C@@H](C)C(=O)N[C@@H](CC(C)C)C(=O)N[C@@H](CC(=O)O)C(=O)N[C@@H](CCCCN)C(=O)N[C@H](C(=O)N[C@@H](Cc1c[nH]cn1)C(=O)N[C@@H](CCC(N)=O)C(=O)NC(C)(C)C(=O)N[C@@H](CC(=O)O)C(=O)N[C@@H](Cc1ccccc1)C(=O)N[C@H](C(=O)N[C@@H](CCC(=O)O)C(=O)N[C@@H](Cc1ccncc1)C(=O)N[C@@H](CCCCNC(=O)COCCOCCNC(=O)COCCOCCNC(=O)CC[C@H](NC(=O)CCCCCCCCCCCCCCCCCCC(=O)O)C(=O)O)C(=O)N[C@@H](CC(C)C)C(=O)N[C@@H](CCC(=O)O)C(=O)N[C@@H](C)C(=O)NCC(=O)N1CCC[C@H]1C(=O)N[C@@H](CO)C(=O)N[C@@H](CO)C(=O)NCC(=O)N[C@@H](C)C(=O)N1CCC[C@H]1C(=O)N1CCC[C@H]1C(=O)N1CCC[C@H]1C(=O)N[C@@H](CO)C(N)=O)C(C)C)[C@@H](C)CC"}, "B5": {"name": "Example 107 (peptide)", "peptide": "Y[Aib]EGTFISDYSI[αMeL]LD[Orn]IHQ[Aib]EFVEYK([AEEA-AEEA-γGlu-C20 diacid])LEGGPSSGAPPPS-NH2", "modifications": "N-terminus assumed", "SMILES": "CC[C@H](C)[C@H](NC(=O)[C@H](CCCN)NC(=O)[C@H](CC(=O)O)NC(=O)[C@H](CC(C)C)NC(=O)[C@](C)(CC(C)C)NC(=O)[C@@H](NC(=O)[C@H](CO)NC(=O)[C@H](Cc1ccc(O)cc1)NC(=O)[C@H](CC(=O)O)NC(=O)[C@H](CO)NC(=O)[C@@H](NC(=O)[C@H](Cc1ccccc1)NC(=O)[C@@H](NC(=O)CNC(=O)[C@H](CCC(=O)O)NC(=O)C(C)(C)NC(=O)[C@@H](N)Cc1ccc(O)cc1)[C@@H](C)O)[C@@H](C)CC)[C@@H](C)CC)C(=O)N[C@@H](Cc1c[nH]cn1)C(=O)N[C@@H](CCC(N)=O)C(=O)NC(C)(C)C(=O)N[C@@H](CCC(=O)O)C(=O)N[C@@H](Cc1ccccc1)C(=O)N[C@H](C(=O)N[C@@H](CCC(=O)O)C(=O)N[C@@H](Cc1ccc(O)cc1)C(=O)N[C@@H](CCCCNC(=O)COCCOCCNC(=O)COCCOCCNC(=O)CC[C@H](NC(=O)CCCCCCCCCCCCCCCCCCC(=O)O)C(=O)O)C(=O)N[C@@H](CC(C)C)C(=O)N[C@@H](CCC(=O)O)C(=O)NCC(=O)NCC(=O)N1CCC[C@H]1C(=O)N[C@@H](CO)C(=O)N[C@@H](CO)C(=O)NCC(=O)N[C@@H](C)C(=O)N1CCC[C@H]1C(=O)N1CCC[C@H]1C(=O)N1CCC[C@H]1C(=O)N[C@@H](CO)C(N)=O)C(C)C"}, "B6": {"name": "Example 106 (peptide)", "peptide": "Y[Aib]EGTFISDYSI[αMeL]LD[Orn]IHQ[Aib]EFVEYK([AEEA-AEEA-γGlu-C20 diacid])LEQGPSSGAPPPS-NH2", "modifications": "N-terminus assumed", "SMILES": "CC[C@H](C)[C@H](NC(=O)[C@H](CCCN)NC(=O)[C@H](CC(=O)O)NC(=O)[C@H](CC(C)C)NC(=O)[C@](C)(CC(C)C)NC(=O)[C@@H](NC(=O)[C@H](CO)NC(=O)[C@H](Cc1ccc(O)cc1)NC(=O)[C@H](CC(=O)O)NC(=O)[C@H](CO)NC(=O)[C@@H](NC(=O)[C@H](Cc1ccccc1)NC(=O)[C@@H](NC(=O)CNC(=O)[C@H](CCC(=O)O)NC(=O)C(C)(C)NC(=O)[C@@H](N)Cc1ccc(O)cc1)[C@@H](C)O)[C@@H](C)CC)[C@@H](C)CC)C(=O)N[C@@H](Cc1c[nH]cn1)C(=O)N[C@@H](CCC(N)=O)C(=O)NC(C)(C)C(=O)N[C@@H](CCC(=O)O)C(=O)N[C@@H](Cc1ccccc1)C(=O)N[C@H](C(=O)N[C@@H](CCC(=O)O)C(=O)N[C@@H](Cc1ccc(O)cc1)C(=O)N[C@@H](CCCCNC(=O)COCCOCCNC(=O)COCCOCCNC(=O)CC[C@H](NC(=O)CCCCCCCCCCCCCCCCCCC(=O)O)C(=O)O)C(=O)N[C@@H](CC(C)C)C(=O)N[C@@H](CCC(=O)O)C(=O)N[C@@H](CCC(N)=O)C(=O)NCC(=O)N1CCC[C@H]1C(=O)N[C@@H](CO)C(=O)N[C@@H](CO)C(=O)NCC(=O)N[C@@H](C)C(=O)N1CCC[C@H]1C(=O)N1CCC[C@H]1C(=O)N1CCC[C@H]1C(=O)N[C@@H](CO)C(N)=O)C(C)C"}},
  "key": {"[1]": {"molecular_target": "human glucagon receptor (human), P47871", "sequence (P47871 26-477)": "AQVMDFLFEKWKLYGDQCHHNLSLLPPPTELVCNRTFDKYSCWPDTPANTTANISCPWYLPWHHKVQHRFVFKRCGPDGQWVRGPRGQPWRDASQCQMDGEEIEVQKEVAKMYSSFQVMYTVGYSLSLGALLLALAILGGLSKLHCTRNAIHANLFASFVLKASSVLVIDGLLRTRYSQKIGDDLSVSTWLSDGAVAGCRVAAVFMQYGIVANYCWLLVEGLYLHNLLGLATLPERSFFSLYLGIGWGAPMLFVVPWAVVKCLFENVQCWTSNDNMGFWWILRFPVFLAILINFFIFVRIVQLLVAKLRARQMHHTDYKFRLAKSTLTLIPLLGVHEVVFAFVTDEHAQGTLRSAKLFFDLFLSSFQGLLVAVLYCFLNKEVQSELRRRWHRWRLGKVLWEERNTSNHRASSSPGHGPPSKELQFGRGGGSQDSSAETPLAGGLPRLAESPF", "test": "SPA, displacement of [125I]-Gcg from hGcgR membranes, 0.1% bacitracin"}, "[2]": {"molecular_target": "T1, human glucose-dependent insulinotropic polypeptide (GIP) receptor (human), P48546", "T1 chain": "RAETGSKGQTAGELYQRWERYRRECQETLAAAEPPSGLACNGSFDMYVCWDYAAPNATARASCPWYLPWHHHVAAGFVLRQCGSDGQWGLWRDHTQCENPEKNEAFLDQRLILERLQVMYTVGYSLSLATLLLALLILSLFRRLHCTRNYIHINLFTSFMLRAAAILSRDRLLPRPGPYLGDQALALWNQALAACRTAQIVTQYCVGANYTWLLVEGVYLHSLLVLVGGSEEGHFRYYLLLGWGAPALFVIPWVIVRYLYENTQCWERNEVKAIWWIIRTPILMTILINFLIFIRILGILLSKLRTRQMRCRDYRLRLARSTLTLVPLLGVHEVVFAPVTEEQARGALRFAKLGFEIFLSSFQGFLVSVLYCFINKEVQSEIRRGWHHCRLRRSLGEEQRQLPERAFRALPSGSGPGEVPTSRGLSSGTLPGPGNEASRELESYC", "test": "SPA, displacement of [125I]-GIP from hGIPR membranes, 0.1% bacitracin"}},
  "note": "Starred links: 1 amine or outer side, 2 acyl side, 3 side chain; linkers in the order of their positions; H or OH if unused. Non-standard residues stand in square brackets, D forms with d. Groups on a side chain read outwards from the residue. No end group written: not given here. *: point of attachment. C20 diacid = O=C(O)CCCCCCCCCCCCCCCCCCC(=O)*; αMePhe(2-F) = C[C@](N)(Cc1ccccc1F)C(=O)O; γGlu = O=C(O)[C@H](CCC(=O)[*:2])N[*:1]; 4Pal = N[C@@H](Cc1ccncc1)C(=O)O; αMeL = CC(C)C[C@](C)(N)C(=O)O; Orn = NCCC[C@H](N)C(=O)O; AEEA = NCCOCCOCC(=O)O; Aib = CC(C)(N)C(=O)O",
  "data": [
    {"binder": "B1", "values": [
      {"measurement": "Ki", "setting": "[1]", "result": 572, "unit": "nM"},
      {"measurement": "Ki", "setting": "[2]", "result": 0.0674, "unit": "nM"}
    ]},
    {"binder": "B2", "values": [
      {"measurement": "Ki", "setting": "[1]", "result": 174, "unit": "nM"},
      {"measurement": "Ki", "setting": "[2]", "result": 0.0341, "unit": "nM"}
    ]},
    {"binder": "B3", "values": [
      {"measurement": "Ki", "setting": "[1]", "result": 257, "unit": "nM"},
      {"measurement": "Ki", "setting": "[2]", "result": 0.0742, "unit": "nM"}
    ]},
    {"binder": "B4", "values": [
      {"measurement": "Ki", "setting": "[1]", "result": 821, "unit": "nM"},
      {"measurement": "Ki", "setting": "[2]", "result": 0.108, "unit": "nM"}
    ]},
    {"binder": "B5", "values": [
      {"measurement": "Ki", "setting": "[1]", "result": 347, "unit": "nM"},
      {"measurement": "Ki", "setting": "[2]", "result": 0.0722, "unit": "nM"}
    ]},
    {"binder": "B6", "values": [
      {"measurement": "Ki", "setting": "[1]", "result": 304, "unit": "nM"},
      {"measurement": "Ki", "setting": "[2]", "result": 0.0918, "unit": "nM"}
    ]}
  ]
}
